Sequences and labels used below:
T1: FcγRIIb (human, UniProt P31994 43-217)
T1 construct: extracellular domain; Soluble extracellular domain with C-terminal His tag, used as analyte; also called FcgRIIb; CD32B; not shown: His tag at the C terminus
T1 sequence (looked up): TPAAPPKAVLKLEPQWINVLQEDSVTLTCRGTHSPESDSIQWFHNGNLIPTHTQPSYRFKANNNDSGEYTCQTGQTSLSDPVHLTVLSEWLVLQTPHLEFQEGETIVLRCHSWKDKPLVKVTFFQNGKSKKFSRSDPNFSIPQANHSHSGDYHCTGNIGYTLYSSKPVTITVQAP

B1: GpH7-A5/GpH7-B3 variant S298_18N/GpL16-k0 (antibody, human IgG1, kappa)
heavy 1: not shown
heavy 2: not shown
light: DIVMTQSPLSLPVTPGEPASISCQASESLVHSNRNTYLHWYLQKPGQSPQLLIYKVSNRFSGVPDRFSGSGSGTDFTLKISRVEAEDVGVYYCSQNTHVPPTFGQGTKVEIERTVAAPSVFIFPPSDEQLKSGTASVVCLLNNFYPREAKVQWKVDNALQSGNSQESVTEQDSKDSTYSLSSTLTLSKADYEKHKVYACEVTHQGLSSPVTKSFNRGEC
notes: He Ab: mutation in one H chain only; also called He Ab
B2: GpH7-A5/GpH7-B3 variant S324_19Q/GpL16-k0 (antibody, human IgG1, kappa)
heavy 1: not shown
heavy 2: not shown
light: B1 light
notes: as for B1
B3: GpH7-A5/GpH7-B3 variant S324_11K/GpL16-k0 (antibody, human IgG1, kappa)
heavy 1: not shown
heavy 2: not shown
light: B1 light
notes: as for B1
B4: GpH7-A5/GpH7-B3 variant S298_19Q/GpL16-k0 (antibody, human IgG1, kappa)
heavy 1: not shown
heavy 2: not shown
light: B1 light
notes: as for B1
B5: GpH7-A5/GpH7-B3 variant S324_09D/GpL16-k0 (antibody, human IgG1, kappa)
heavy 1: not shown
heavy 2: not shown
light: B1 light
notes: as for B1
B6: GpH7-A5/GpH7-B3 variant S324_10E/GpL16-k0 (antibody, human IgG1, kappa)
heavy 1: not shown
heavy 2: not shown
light: B1 light
notes: as for B1
B7: GpH7-A5/GpH7-B3 variant S324_01G/GpL16-k0 (antibody, human IgG1, kappa)
heavy 1: not shown
heavy 2: not shown
light: B1 light
notes: as for B1
B8: GpH7-A5/GpH7-B3 variant S324_14T/GpL16-k0 (antibody, human IgG1, kappa)
heavy 1: not shown
heavy 2: not shown
light: B1 light
notes: as for B1
B9: GpH7-A5/GpH7-B3 variant S324_12R/GpL16-k0 (antibody, human IgG1, kappa)
heavy 1: not shown
heavy 2: not shown
light: B1 light
notes: as for B1
B10: GpH7-A5/GpH7-B3 variant S324_02A/GpL16-k0 (antibody, human IgG1, kappa)
heavy 1: not shown
heavy 2: not shown
light: B1 light
notes: as for B1
B11: GpH7-A5/GpH7-B3 variant S324_18N/GpL16-k0 (antibody, human IgG1, kappa)
heavy 1: not shown
heavy 2: not shown
light: B1 light
notes: as for B1
B12: GpH7-A5/GpH7-B3 variant S337_01G/GpL16-k0 (antibody, human IgG1, kappa)
heavy 1: not shown
heavy 2: not shown
light: B1 light
notes: as for B1
B13: GpH7-A5/GpH7-B3 variant S324_20W/GpL16-k0 (antibody, human IgG1, kappa)
heavy 1: not shown
heavy 2: not shown
light: B1 light
notes: as for B1
B14: GpH7-A5/GpH7-B3 variant S324_15Y/GpL16-k0 (antibody, human IgG1, kappa)
heavy 1: not shown
heavy 2: not shown
light: B1 light
notes: as for B1
B15: GpH7-A5/GpH7-B3 variant S298_20W/GpL16-k0 (antibody, human IgG1, kappa)
heavy 1: not shown
heavy 2: not shown
light: B1 light
notes: as for B1
B16: GpH7-A5/GpH7-B3 variant S337_02A/GpL16-k0 (antibody, human IgG1, kappa)
heavy 1: not shown
heavy 2: not shown
light: B1 light
notes: as for B1
B17: GpH7-A5/GpH7-B3 variant S324_16H/GpL16-k0 (antibody, human IgG1, kappa)
heavy 1: not shown
heavy 2: not shown
light: B1 light
notes: as for B1

In patent US20150344570A1 (published 2015) one finds He/Con_2b and He/Con_1a data, which are given here for 17 molecules.

T2 sequence (P12314 16-292): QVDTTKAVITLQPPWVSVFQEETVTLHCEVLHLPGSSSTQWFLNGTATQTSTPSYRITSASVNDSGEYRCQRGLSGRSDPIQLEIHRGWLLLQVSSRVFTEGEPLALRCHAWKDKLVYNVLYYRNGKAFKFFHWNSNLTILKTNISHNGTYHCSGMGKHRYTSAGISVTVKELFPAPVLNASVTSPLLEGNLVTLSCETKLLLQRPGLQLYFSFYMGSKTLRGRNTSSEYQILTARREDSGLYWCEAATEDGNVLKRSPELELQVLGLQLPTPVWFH

The target of the first experiment is T1, FcγRIIb. The experiment can be described thus: SPR (Biacore), captured antibody, FcγR as analyte, relative binding. How it is done:
(§1) The heterodimerized antibodies He Abs in which one of the H chains was introduced with an alteration were assayed for their binding activities to each activating FcγR and inhibitory FcγR according to the method described in Example 4. […] The activating FcγRs in FIGS. 26, 27, 28, and 29 are FcγRIa, FcγRIIa (R), FcγRIIa (H), and FcγRIIIa, respectively.
(§2) Analysis of interaction between objective antibody and the FcγR was carried out using Biacore T100 (GE Healthcare). HBS-EP+ (GE Healthcare) was used as the running buffer, and the measurement temperature was set to 25° C. Chips produced by immobilizing the antigen peptide by the amine coupling method to a Series S Sencor Chip CM5 (GE Healthcare), or alternatively, chips produced by allowing preliminarily biotinylated antigen peptides to interact with and immobilize onto a Series S Sensor Chip SA (certified) (GE Healthcare) were used. Antibodies of interest were captured onto an antigen peptide-immobilized chip, and allowed to interact to each FcγR diluted with running buffer. To regenerate and repeatedly use the chip, the antibodies captured on the chip were washed off by reacting 10 mM glycine-HCl, pH 1.5.
On the technique in general: SPR reads the build-up and loss of mass on a sensor chip optically.
For B1, the He/Con_2b was 48.1 % of GpH7-A5/GpH7-B3/GpL16-k0.

Take B2: the He/Con_2b is 66.8 % of GpH7-A5/GpH7-B3/GpL16-k0.

With B3, the He/Con_2b was 68.6 % of GpH7-A5/GpH7-B3/GpL16-k0.

B4: the He/Con_2b was 73.3 % of GpH7-A5/GpH7-B3/GpL16-k0.

As for B5, the He/Con_2b was 85.8 % of GpH7-A5/GpH7-B3/GpL16-k0.

Regarding B6, the He/Con_2b was 77.4 % of GpH7-A5/GpH7-B3/GpL16-k0.

On to B7, for which the He/Con_2b is 81.1 % of GpH7-A5/GpH7-B3/GpL16-k0.

Regarding B8, the He/Con_2b is 88.4 % of GpH7-A5/GpH7-B3/GpL16-k0.

For the molecule B9, the He/Con_2b is 63.1 % of GpH7-A5/GpH7-B3/GpL16-k0.

B10: the He/Con_2b was 78.3 % of GpH7-A5/GpH7-B3/GpL16-k0.

Regarding B11, the He/Con_2b was 81.1 % of GpH7-A5/GpH7-B3/GpL16-k0.

For B12, the He/Con_2b was 92 % of GpH7-A5/GpH7-B3/GpL16-k0.

Consider B13, for which the He/Con_2b is 87.5 % of GpH7-A5/GpH7-B3/GpL16-k0.

For the molecule B14, the He/Con_2b was 88.2 % of GpH7-A5/GpH7-B3/GpL16-k0.

Consider B15, for which the He/Con_2b was 41.1 % of GpH7-A5/GpH7-B3/GpL16-k0.

For B16, the He/Con_2b was 97.2 % of GpH7-A5/GpH7-B3/GpL16-k0.

Regarding B17, the He/Con_2b is 83.5 % of GpH7-A5/GpH7-B3/GpL16-k0.

Another experiment concerns the target T2, FcγRIa (human, UniProt P12314 16-292).
T2 construct: extracellular domain; Soluble extracellular domain with C-terminal His tag, used as analyte; also called FcgRI; CD64; not shown: His tag at the C terminus
The description is as above. The protocol: as §1, §2
For B1, the He/Con_1a is 108 % of GpH7-A5/GpH7-B3/GpL16-k0.

As to B2, the He/Con_1a is 112 % of GpH7-A5/GpH7-B3/GpL16-k0.

As for B3, the He/Con_1a was 102 % of GpH7-A5/GpH7-B3/GpL16-k0.

For B4, the He/Con_1a was 109 % of GpH7-A5/GpH7-B3/GpL16-k0.

Consider B5, for which the He/Con_1a was 104 % of GpH7-A5/GpH7-B3/GpL16-k0.

In the case of B6, the He/Con_1a is 105 % of GpH7-A5/GpH7-B3/GpL16-k0.

Regarding B7, the He/Con_1a was 98.8 % of GpH7-A5/GpH7-B3/GpL16-k0.

With B8, the He/Con_1a is 121 % of GpH7-A5/GpH7-B3/GpL16-k0.

Take B9: the He/Con_1a was 102 % of GpH7-A5/GpH7-B3/GpL16-k0.

With B10, the He/Con_1a was 103 % of GpH7-A5/GpH7-B3/GpL16-k0.

Consider B11, for which the He/Con_1a is 116 % of GpH7-A5/GpH7-B3/GpL16-k0.

Regarding B12, the He/Con_1a is 107 % of GpH7-A5/GpH7-B3/GpL16-k0.

Turning to B13, the He/Con_1a was 114 % of GpH7-A5/GpH7-B3/GpL16-k0.

For B14, the He/Con_1a is 114 % of GpH7-A5/GpH7-B3/GpL16-k0.

With B15, the He/Con_1a was 104 % of GpH7-A5/GpH7-B3/GpL16-k0.

Consider B16, for which the He/Con_1a is 106 % of GpH7-A5/GpH7-B3/GpL16-k0.

With B17, the He/Con_1a was 113 % of GpH7-A5/GpH7-B3/GpL16-k0.
